Experimental data from doi:10.1101/2024.08.03.606473.

Experiments:
[1] = biological target: SidF C-trim (residues 1-443) (Aspergillus fumigatus) (UniProt Q4WF55); assay: SAXS
[2] = biological target: SidF C-trim (residues 1-443) (Aspergillus fumigatus) (UniProt Q4WF55); assay: SEC

Substance: SidF C-trim (residues 1-443) (from UniProt Q4WF55 1-443) (domain or fragment)
- stoichiometry N [1]: 2
- stoichiometry N [2]: 4
